Measurements taken from patent US9435807B2, “Use of leucyl tRNA synthetase” (Medicinal Bioconvergence Research Center, priority 2011, dated 2016).

Key:
Type in all cases: biochemical
CC(C)C[C@H](N)C(=O)O [1] = test: Leucylation assay, LRS WT; details: pH 7.6, 37.0 °C
Procedure: (§1) In FIG. 5b, leucylations by LRS WT and mutants (F50A/Y52A, F50A, and Y52A) were carried out by using 4 μM tRNALeu and 50 nM enzymes.
(§2) The leucylation assay was carried out in a buffer containing 1 mM spermine, 50 mM HEPES-KOH (pH7.6), 25 mM KCl, 5 mM MgCl2, 4 mM ATP, 2 mg/ml bovine liver tRNA^Leu, various concentrations of [^3H]Leu (60 Ci/mmol), and 10-100 nM of LRS. Reactions were initiated with enzyme and conducted in a 37° C. heat block. Aliquots (10 ul) were taken at different time points and quenched on Whatman filter pads that were presoaked with 5% trichloroacetic acid (TCA). The pads were washed three times for 10 min each with cold 5% TCA, and once with cold 100% ethanol. The washed pads were then dried. Radioactivity was quantified in a scintillation counter (Beckman Coulter)

CC(C)C[C@H](N)C(=O)O [2] = test system: T1, CC(C)C[C@H](N)C(=O)O; test: Leucylation assay, LRS F50A/Y52A mutant; details: other: LRS F50A/Y52, leucylation, substrate leucine; pH 7.6; 37.0 °C
T1 construct: made in house
Procedure: as §1, §2

CC(C)C[C@H](N)C(=O)O [3] = test: ATP-PPi exchange assay, WT LRS; details: other: absence of tRNA^Leu (ATP-PPi exchange); pH 7.6; 37.0 °C
Procedure: The ATP-PPi exchange reaction was performed in a reaction mixture containing 2 mM [^32P]pyrophosphate (PPi) (80.70 mCi/mL), 50 mM HEPES-KOH (pH 7.6), 2 mM MgCl2, 8 mM KF, 4 mM ATP, and various concentrations of leucine and 25 nM of LRS. Reaction were initiated with enzymes and conducted in a 37° C. heat block. Aliquots (10 ul) were taken at different time points, and the reactions were stopped using lml of quenching buffer (50 mM NaPPi, 3.5% HC1O4, 2% activated charcoal). The charcoal suspension was filtered through a Whatman GF/A filter, washed four times with 5 ml of water and rinsed with 10 ml of 100% ethanol. The charcoal powder on the filters was dried, and the synthesized [^32P]ATP was counted using a scintillation counter (Beckman Coulter).

[4] = other: LRS WT, leucylation, substrate leucine

LRS WT (Homo sapiens), sequence (chain, as listed by the source): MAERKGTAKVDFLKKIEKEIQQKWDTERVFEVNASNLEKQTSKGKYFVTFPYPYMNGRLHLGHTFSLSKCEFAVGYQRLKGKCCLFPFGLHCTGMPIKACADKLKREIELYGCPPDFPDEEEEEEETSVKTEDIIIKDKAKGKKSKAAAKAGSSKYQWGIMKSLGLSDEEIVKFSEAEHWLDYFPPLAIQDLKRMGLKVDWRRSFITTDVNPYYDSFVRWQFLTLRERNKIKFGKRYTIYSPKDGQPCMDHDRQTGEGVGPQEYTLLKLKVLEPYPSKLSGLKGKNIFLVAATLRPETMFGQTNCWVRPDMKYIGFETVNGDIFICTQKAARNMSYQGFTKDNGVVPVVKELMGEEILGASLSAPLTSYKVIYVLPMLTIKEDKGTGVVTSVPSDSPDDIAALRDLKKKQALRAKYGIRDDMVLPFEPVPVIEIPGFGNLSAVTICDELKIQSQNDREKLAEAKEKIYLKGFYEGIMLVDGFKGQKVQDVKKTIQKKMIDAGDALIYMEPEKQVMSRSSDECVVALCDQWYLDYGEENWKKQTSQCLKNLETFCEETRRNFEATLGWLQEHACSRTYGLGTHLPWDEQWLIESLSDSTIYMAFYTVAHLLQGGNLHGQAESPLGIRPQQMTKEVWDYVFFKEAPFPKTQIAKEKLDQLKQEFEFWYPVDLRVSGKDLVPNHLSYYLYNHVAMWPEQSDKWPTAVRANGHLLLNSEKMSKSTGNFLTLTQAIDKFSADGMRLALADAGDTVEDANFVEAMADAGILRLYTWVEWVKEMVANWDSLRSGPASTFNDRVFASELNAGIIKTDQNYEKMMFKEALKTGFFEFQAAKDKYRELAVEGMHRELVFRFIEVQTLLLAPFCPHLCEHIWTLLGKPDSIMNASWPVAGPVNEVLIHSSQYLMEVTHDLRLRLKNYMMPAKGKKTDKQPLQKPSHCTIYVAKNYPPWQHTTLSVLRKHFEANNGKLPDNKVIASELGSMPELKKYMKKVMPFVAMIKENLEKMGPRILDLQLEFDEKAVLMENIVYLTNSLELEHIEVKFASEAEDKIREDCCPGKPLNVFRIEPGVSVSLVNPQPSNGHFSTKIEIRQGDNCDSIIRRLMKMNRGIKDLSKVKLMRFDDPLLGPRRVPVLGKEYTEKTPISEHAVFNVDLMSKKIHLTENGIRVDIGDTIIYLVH
LRS F50A/Y52 (Homo sapiens; F50A/Y52A), sequence (chain, as listed by the source F50A F50A Y52A): as the sequence (chain, as listed by the source) above, with F50A, Y52A counted along it
LRS (Homo sapiens), sequence (chain, as listed by the source): as the sequence (chain, as listed by the source) above

Q: For LRS WT (Homo sapiens), which Km (CC(C)C[C@H](N)C(=O)O [1]; [4]) is on record?
A: The Km was 15.9 ± 0.4 µM.

Q: What about the kcat (CC(C)C[C@H](N)C(=O)O [1]; [4]) of the same substance?
A: Its kcat is 0.368 ± 0.009 s⁻¹.

Q: And the kcat/Km (CC(C)C[C@H](N)C(=O)O [1]; [4])?
A: Its kcat/Km is 22900 ± 570 M⁻¹ s⁻¹.

Q: And the Km (CC(C)C[C@H](N)C(=O)O [1]; other: presence of tRNA^Leu (leucylation))?
A: Its Km is 15.9 ± 0.4 µM.

Q: Which Km (CC(C)C[C@H](N)C(=O)O [2]) does the source give for LRS F50A/Y52 (Homo sapiens; F50A/Y52A) here?
A: Its Km is 536 ± 63 µM.

Q: How did the Km (CC(C)C[C@H](N)C(=O)O [3]) turn out when LRS (Homo sapiens) was run?
A: The Km was 143 ± 61 µM.
